Experimental data: publication PMC5427921, “PRL3 phosphatase active site is required for binding the putative magnesium transporter CNNM3” (Scientific Reports, 2017)
Blank lines part the entries; values can stand above or below the substance they belong to.

Experiments:
[1] = target: CNNM2 CBS-pair domain (Homo sapiens) (UniProt Q9H8M5); conditions: cited from earlier work
[2] = target: CNNM3 CBS-pair domain as a GST fusion (human) (UniProt Q8NE01); assay: ITC; syringe 160 μM PRL2 or PRL3, cell 16 μM CNNM3 CBS-pair domain as a GST fusion; 22 °C; 30 injections of 10 μl; fitted to a single set of identical sites
Sequence of CNNM3 CBS-pair domain as a GST fusion (human) (Q8NE01 309-452): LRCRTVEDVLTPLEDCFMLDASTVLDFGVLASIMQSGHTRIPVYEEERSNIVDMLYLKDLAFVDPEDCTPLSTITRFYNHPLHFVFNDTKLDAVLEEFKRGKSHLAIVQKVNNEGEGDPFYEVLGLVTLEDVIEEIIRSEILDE

[3] = target: CNNM3 CBS-pair domain (Homo sapiens) (UniProt Q8NE01); conditions: cited from earlier work
Sequence of CNNM3 CBS-pair domain (Homo sapiens) (Q8NE01 309-452): as above

Sequence of CNNM2 CBS-pair domain (Homo sapiens) (Q9H8M5 429-584): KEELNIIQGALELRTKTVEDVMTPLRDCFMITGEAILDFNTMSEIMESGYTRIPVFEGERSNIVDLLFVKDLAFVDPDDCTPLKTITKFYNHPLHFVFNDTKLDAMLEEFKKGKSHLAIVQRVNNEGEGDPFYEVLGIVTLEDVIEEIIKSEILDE
Sequence of PRL1 (Q93096 1-170): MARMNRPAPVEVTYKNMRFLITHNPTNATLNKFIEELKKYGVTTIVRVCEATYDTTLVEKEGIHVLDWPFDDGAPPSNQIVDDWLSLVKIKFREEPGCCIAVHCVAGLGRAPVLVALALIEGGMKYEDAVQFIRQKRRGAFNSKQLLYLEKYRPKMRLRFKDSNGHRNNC
Sequence of PRL2 (Q12974 1-164): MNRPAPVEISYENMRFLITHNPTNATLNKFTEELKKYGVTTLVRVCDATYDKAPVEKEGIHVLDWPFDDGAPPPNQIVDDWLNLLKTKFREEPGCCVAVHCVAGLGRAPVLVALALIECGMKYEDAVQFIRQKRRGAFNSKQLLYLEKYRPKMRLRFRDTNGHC

Substance: PRL1 (from UniProt Q93096)
Kd [1]: 640 nM

dH [2]: -16.6 kcal/mol
stoichiometry N [2]: 1.02
Substance: PRL2 phosphatase (as used in ITC) (from UniProt Q12974 1-167) (enzyme)

Substance: PRL2 (from UniProt Q12974)
Kd [3]: 25 nM
